T1: human CTLA4 (soluble analyte of the Biacore assays of Examples 3-3, 4 and 5) (human, UniProt P16410 36-161)
T1 construct: also called hCTLA4
T1 sequence: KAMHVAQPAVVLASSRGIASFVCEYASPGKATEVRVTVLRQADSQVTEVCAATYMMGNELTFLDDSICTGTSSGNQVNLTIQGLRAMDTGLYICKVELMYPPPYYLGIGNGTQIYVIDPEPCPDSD


How the values were obtained:
[1] = target: T1, human CTLA4 (soluble analyte of the …); assay: SPR 37C, Ab on Protein G, 1000 nM CTLA4, ATP 10 uM
Method: (§1) Next, by interacting with a human CTLA4 solution prepared in a running buffer containing ATP to the desired concentration, or a human CTLA4 solution prepared in a running buffer containing no ATP, the binding ability of the antibody to human CTLA4 in the presence or absence of ATP was evaluated. Chips were regenerated with 25 mM NaOH and 10 mM Glycine-HCl (pH 1.5), and assay was performed by repeatedly capturing antibodies. The dissociation constant of each antibody for CTLA4 was calculated using Biacore T200 Evaluation Software 2.0. Specifically, the binding rate constant ka (L/mol/s) and the dissociation rate constant kd (1/s) were calculated by global fitting of the sensorgrams obtained by the measurement, using a 1:1 Langmuir binding model. The dissociation constant KD (mol/L) was calculated from those values. Alternatively, the dissociation constant KD (mol/L) was calculated by the steady state model. In addition, the binding amount of CTLA4 per unit amount of antibody was calculated by correcting the amount of CTLA4 bound as calculated from the sensorgram obtained by the assay with the amount of antibody captured onto the chip surface.
(§2) Biacore T200 was used to evaluate the binding of the generated variants to ATP and to human CTLA4. The assay of binding to ATP was performed at 37° C. using 20 mM ACES (pH 7.4), 150 mM NaCl, 2 mM MgCl₂, 0.05% Tween20 as the running buffer. First, Sure Protein A (GE Healthcare) was immobilized onto a Series S Sensor Chip CM3 (GE Healthcare), and the antibodies were captured onto the chip by interacting an antibody solution prepared in the running buffer. Next, the binding ability to the antibody was evaluated by interacting with an ATP solution prepared in the running buffer. Chips were regenerated with 25 mM NaOH and 10 mM Glycine-HCl (pH 1.5) and assay was performed by repeatedly capturing antibodies. For the binding amount of each antibody to ATP, the binding amount of ATP per unit amount of antibody was calculated by correcting the amount of binding when ATP was injected at a concentration of 100 nM with the amount of antibody captured onto the chip surface. Binding to human CTLA4 was measured using Biacore T200 by the method described in Example 3-3.

[2] = target: T1, human CTLA4 (soluble analyte of the …); assay: SPR 37C, Ab on Protein G, 1000 nM CTLA4, ATP 1 uM
Method: as §1, §2

[3] = target: T1, human CTLA4 (soluble analyte of the …); assay: SPR 37C, Ab on Protein G, 1000 nM CTLA4, ATP 100 uM
Method: as §1, §2

[4] = target: T1, human CTLA4 (soluble analyte of the …); assay: SPR 37C, Ab on Protein G, 1000 nM CTLA4, no ATP
Method: as §1, §2

[5] = target: T1, human CTLA4 (soluble analyte of the …); assay: SPR 37C, Ab on Protein G, 1000 nM CTLA4, no ATP; no ATP; binding amount at 1000 nM CTLA4
Method: as §1, with “Biacore T200 was used to measure the binding of the generated antibodies to human CTLA4. 20 mM ACES (pH 7.4), 150 mM NaCl, 2 mM MgCl₂, 0.05% Tween 20 with ATP added to the desired concentration was used as the running buffer, and the assay was performed at 37° C. First, Protein G (CALBIOCHEM) was immobilized onto a Series S Sensor Chip CM3 (GE Healthcare), and the antibodies were captured by interacting an antibody solution prepared in an ATP-free running buffer with the chip. Next,” for “Next,”
(§3) The KD values marked with an * in the table were calculated using the steady state model. It was shown that all the variants prepared using 04H0150-G1m/04L0072-lam1 as the parent antibody had enhanced binding in the presence of ATP as compared to 04H0150-G1m/04L0072-lam1.

[6] = target: T1, human CTLA4 (soluble analyte of the …); assay: SPR 37C, Ab on Protein G, 1000 nM CTLA4, ATP 100 uM; ATP 100 uM; binding amount at 1000 nM CTLA4
Method: as §1, with “Biacore T200 was used to measure the binding of the generated antibodies to human CTLA4. 20 mM ACES (pH 7.4), 150 mM NaCl, 2 mM MgCl₂, 0.05% Tween 20 with ATP added to the desired concentration was used as the running buffer, and the assay was performed at 37° C. First, Protein G (CALBIOCHEM) was immobilized onto a Series S Sensor Chip CM3 (GE Healthcare), and the antibodies were captured by interacting an antibody solution prepared in an ATP-free running buffer with the chip. Next,” for “Next,”
as §3

[7] = target: T1, human CTLA4 (soluble analyte of the …); assay: SPR 37C, Ab on Protein G, 1000 nM CTLA4, ATP 1 uM; ATP 1 uM; binding amount at 1000 nM CTLA4
Method: as §1, with “Biacore T200 was used to measure the binding of the generated antibodies to human CTLA4. 20 mM ACES (pH 7.4), 150 mM NaCl, 2 mM MgCl₂, 0.05% Tween 20 with ATP added to the desired concentration was used as the running buffer, and the assay was performed at 37° C. First, Protein G (CALBIOCHEM) was immobilized onto a Series S Sensor Chip CM3 (GE Healthcare), and the antibodies were captured by interacting an antibody solution prepared in an ATP-free running buffer with the chip. Next,” for “Next,”
as §3

[8] = target: T1, human CTLA4 (soluble analyte of the …); assay: SPR 37C, Ab on Protein G, 1000 nM CTLA4, ATP 10 uM; ATP 10 uM; binding amount at 1000 nM CTLA4
Method: as §1, with “Biacore T200 was used to measure the binding of the generated antibodies to human CTLA4. 20 mM ACES (pH 7.4), 150 mM NaCl, 2 mM MgCl₂, 0.05% Tween 20 with ATP added to the desired concentration was used as the running buffer, and the assay was performed at 37° C. First, Protein G (CALBIOCHEM) was immobilized onto a Series S Sensor Chip CM3 (GE Healthcare), and the antibodies were captured by interacting an antibody solution prepared in an ATP-free running buffer with the chip. Next,” for “Next,”
as §3

[9] = target: T1, human CTLA4 (soluble analyte of the …); assay: SPR 37C, ATP 10 µM
Method: as §1, with “Biacore T200 was used to measure the binding of the generated antibodies to human CTLA4. 20 mM ACES (pH 7.4), 150 mM NaCl, 2 mM MgCl₂, 0.05% Tween 20 with ATP added to the desired concentration was used as the running buffer, and the assay was performed at 37° C. First, Protein G (CALBIOCHEM) was immobilized onto a Series S Sensor Chip CM3 (GE Healthcare), and the antibodies were captured by interacting an antibody solution prepared in an ATP-free running buffer with the chip. Next,” for “Next,”, “In addition, the binding amount of CTLA4 per unit amount of antibody was calculated by correcting the amount of CTLA4 bound as calculated from the sensorgram obtained by the assay with the amount of antibody captured onto the chip surface.” left out

| Binder | Binding to Human CTLA4 (amount per unit antibody) [1] | Binding to Human CTLA4 (amount per unit antibody) [2] | Binding to Human CTLA4 (amount per unit antibody) [3] | Binding to Human CTLA4 (amount per unit antibody) [4] | Binding to Human CTLA4 (amount per unit antibody) [5] | Binding to Human CTLA4 (amount per unit antibody) [6] | Binding to Human CTLA4 (amount per unit antibody) [7] | Binding to Human CTLA4 (amount per unit antibody) [8] | fold enhancement of binding ability against the parent antibody 04H1208-G1m/04L1086-lam1 [9] [fold] |
| --- | --- | --- | --- | --- | --- | --- | --- | --- | --- |
| 04H1389-G1m/04L1305-k0MT (antibody, human IgG1, kappa) heavy: not shown light: DIVMTQSPLSLPVTPGEPASISCDGPSTGVGDYNYVHWYQQKPGQAPRLLIYFTSKKPSGVPDRFSGSGSGTDFTLKISRVEAEDVGVYYCQTYAAPLGPMFGQGTKLEIKRTVAAPSVFIFPPSDEQLKSGTASVVCLLNNFYPREAKVQWKVDNALQSGNSQESVTEQDSKDSTYSLSSTLTLSKADYEKHKVYACEVTHQGLSSPVTKSFNRGEC | 0.154 | 0.12 | 0.151 | 0.03 |  |  |  |  |  |
| 04H1077-G1m/04L1034-lam1 (antibody, human IgG1, lambda, V domains shown) VH: EVQLVESGGDLVKPGGGLRLSCAASGFTFSSRTMNWVRQAPGKGLEWVSSISTRSGYIYYAESVKGRFTISRDNAKNSLYLQMNSLRAEDTAVYYCARYGKREDMLWVFDYWGQGTLVTVSS VL: QSALTQPPSASGSPGQTVTISCDGPSTDVGDYNWVSWYQQHPGKAPKLMIYFTSKKPSGVPDRFSGSKSGNTASLTVSGLQAEDEADYFCSTYAAPLGPMFGGGTKLTVLG |  |  |  |  | 0.004 | 0.114 | 0.007 | 0.041 |  |
| 04H1207-G1m/04L1086-lam1 (antibody, human IgG1, lambda, V domains shown) VH: EVQLVESGGGLVKPGGSLRLSCAASGFTFSSKTMNWVRQAPGKGLEWVSSISTRSGYIYYAESVKGRFTISRDNAKNSLYLQMNSLRAEDTAVYYCARYGKREDMLWVFDYWGQGTLVTVSS VL: QSALTQPPSASGSPGQTVTISCDGPSTGVGDYNYVHWYQQHPGKAPKLMIYFTSKKPSGVPDRFSGSKSGNTASLTVSGLQAEDEADYFCQTYAAPLGPMFGGGTKLTVLG | 0.111 | 0.037 | 0.166 | 0.01 | 0.013 | 0.196 | 0.047 | 0.137 |  |
| 04H1382-G1m/04L1086-lam1 (antibody, human IgG1, lambda, V domains shown) VH: EVQLVESGGGLVKPGGSLRLSCAASGFTFSSKTMNWVRQAPGKGLEWVSSISTQSHYIYYARSVKGRFTISRDNAKNSLYLQMNSLRAEDTAVYYCARYGKREDMLWVFDYWGQGTLVTVSS VL: QSALTQPPSASGSPGQTVTISCDGPSTGVGDYNYVHWYQQHPGKAPKLMIYFTSKKPSGVPDRFSGSKSGNTASLTVSGLQAEDEADYFCQTYAAPLGPMFGGGTKLTVLG |  |  |  |  |  |  |  |  | ~10 |
| 04H1077-G1m/04L1086-lam1 (antibody, human IgG1, lambda, V domains shown) VH: EVQLVESGGDLVKPGGGLRLSCAASGFTFSSRTMNWVRQAPGKGLEWVSSISTRSGYIYYAESVKGRFTISRDNAKNSLYLQMNSLRAEDTAVYYCARYGKREDMLWVFDYWGQGTLVTVSS VL: QSALTQPPSASGSPGQTVTISCDGPSTGVGDYNYVHWYQQHPGKAPKLMIYFTSKKPSGVPDRFSGSKSGNTASLTVSGLQAEDEADYFCQTYAAPLGPMFGGGTKLTVLG |  |  |  |  | 0.01 | 0.181 | 0.031 | 0.106 |  |
| 04H1208-G1m/04L1086-lam1 (antibody, human IgG1, lambda, V domains shown) VH: EVQLVESGGGLVKPGGSLRLSCAASGFTFSSKTMNWVRQAPGKGLEWVSSISTRSGYIYYARSVKGRFTISRDNAKNSLYLQMNSLRAEDTAVYYCARYGKREDMLWVFDYWGQGTLVTVSS VL: QSALTQPPSASGSPGQTVTISCDGPSTGVGDYNYVHWYQQHPGKAPKLMIYFTSKKPSGVPDRFSGSKSGNTASLTVSGLQAEDEADYFCQTYAAPLGPMFGGGTKLTVLG | 0.084 | 0.022 | 0.139 | 0.003 | 0.005 | 0.17 | 0.03 | 0.108 |  |
| 04H1077-G1m/04L1067-lam1 (antibody, human IgG1, lambda, V domains shown) VH: EVQLVESGGDLVKPGGGLRLSCAASGFTFSSRTMNWVRQAPGKGLEWVSSISTRSGYIYYAESVKGRFTISRDNAKNSLYLQMNSLRAEDTAVYYCARYGKREDMLWVFDYWGQGTLVTVSS VL: QSALTQPPSASGSPGQTVTISCDGPSTGVGDYNYVHWYQQHPGKAPKLMIYFTSKKPSGVPDRFSGSKSGNTASLTVSGLQAEDEADYFCSTYAAPLGPMFGGGTKLTVLG |  |  |  |  | 0.012 | 0.192 | 0.041 | 0.131 |  |
| 04H1077-G1m/04L1041-lam1 (antibody, human IgG1, lambda, V domains shown) VH: EVQLVESGGDLVKPGGGLRLSCAASGFTFSSRTMNWVRQAPGKGLEWVSSISTRSGYIYYAESVKGRFTISRDNAKNSLYLQMNSLRAEDTAVYYCARYGKREDMLWVFDYWGQGTLVTVSS VL: QSALTQPPSASGSPGQTVTISCDGPSTDVGDYNYVHWYQQHPGKAPKLMIYFTSKKPSGVPDRFSGSKSGNTASLTVSGLQAEDEADYFCSTYAAPLGPMFGGGTKLTVLG |  |  |  |  | 0.006 | 0.172 | 0.023 | 0.094 |  |

From US20260092115A1 (Chugai, published 2026)
